These results are taken from PMC2848186.

Chain of GST-GCN5 (Q92830 2-837): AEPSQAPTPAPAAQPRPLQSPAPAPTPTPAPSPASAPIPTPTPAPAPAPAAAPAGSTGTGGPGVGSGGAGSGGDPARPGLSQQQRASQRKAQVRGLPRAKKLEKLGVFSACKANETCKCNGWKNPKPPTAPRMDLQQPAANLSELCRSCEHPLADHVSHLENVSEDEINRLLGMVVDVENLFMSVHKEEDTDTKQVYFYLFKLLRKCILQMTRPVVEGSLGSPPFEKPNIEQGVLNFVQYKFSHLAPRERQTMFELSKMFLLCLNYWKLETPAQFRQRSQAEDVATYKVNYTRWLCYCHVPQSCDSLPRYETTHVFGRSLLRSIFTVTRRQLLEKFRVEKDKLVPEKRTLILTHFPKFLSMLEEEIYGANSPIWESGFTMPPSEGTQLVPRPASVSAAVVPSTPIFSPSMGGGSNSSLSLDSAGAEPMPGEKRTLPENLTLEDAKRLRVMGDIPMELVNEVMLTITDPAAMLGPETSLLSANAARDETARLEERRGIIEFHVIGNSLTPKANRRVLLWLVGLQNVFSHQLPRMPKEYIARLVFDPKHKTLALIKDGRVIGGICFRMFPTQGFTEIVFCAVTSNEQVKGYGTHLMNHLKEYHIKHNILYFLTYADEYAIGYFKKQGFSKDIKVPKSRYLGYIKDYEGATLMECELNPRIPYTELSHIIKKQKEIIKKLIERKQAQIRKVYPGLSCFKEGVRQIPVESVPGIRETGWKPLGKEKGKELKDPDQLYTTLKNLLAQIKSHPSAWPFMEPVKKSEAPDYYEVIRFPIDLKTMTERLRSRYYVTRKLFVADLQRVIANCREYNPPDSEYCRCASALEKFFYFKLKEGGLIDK

The test has as its target GST-GCN5. In words: pull-down; GST-GCN5 (1 ug) immobilised on glutathione beads, pre-treated with DNase I and RNase H; incubated with 600 c.p.m. of in vitro translated [35S]-IN proteins in 0.2 mg/ml ethidium bromide; SDS-PAGE and phosphoimaging; bound protein as percent of radiolabeled input.
As for “35S-IN fragment 1-263 (from UniProt P04585 2-264) (domain or fragment)”, the binding efficiency (percent of radiolabeled input bound) was 13%. Then “35S-IN fragment 1-272 (from UniProt P04585 2-273) (domain or fragment)”, with 13%; and “35S-IN, full-length HIV-1 integrase, in vitro translated (from UniProt P04585) (enzyme)”, with 16%.
